According to US8722861B2, “Monoclonal antibodies that bind to the V3 loop of HIV-1 gp120” (priority 2007, dated 2014):

Tests used:
[1] = system: HIV-1JR-FL chronically infected cells (PM1/JR-FL); experiment: FACS binding to functional envelope on infected cell surface; settings: for reactivity in the absence of sCD4: absence of sCD4, FIG. 2
Description: It has been known that HIV-1 has a functional envelope causing membrane fusion with target cells on viral particles and on the surfaces of chronically infected cells. In order to study whether or not the produced antibody is able to recognize this functional envelope, the binding activity of the antibody to the cell surface of HIV-1JR-FL chronically infected cells (PM1/JR-FL) was examined with a flow cytometer. […] PM1/JR-FL cells (2×10^5) were placed in a test tube. Thereafter, 50 μl of sCD4 that had been diluted with a FACS buffer (2% BSA, 0.02% Azide in PBS; pH 7.23) and adjusted to a concentration of 1 μg/ml, or 50 μl of only the FACS buffer, was added to the test tube. The mixture was reacted for 15 minute. Thereafter, 50 μl of monoclonal antibody diluted with a FACS buffer to a concentration of 1 to 3 μg/ml was then added to the reaction mixture, and the obtained mixture was reacted at room temperature for 45 minutes. The resultant was washed with a FACS buffer two times, and 50 μl of FITC-bound anti-human IgG antibody (Sigma) diluted with a FACS buffer at a ratio of 1:200 was then added to the resultant. The mixture was incubated at 4° C. in a dark place for 30 minutes. Thereafter, the resultant was washed with a FACS buffer two times, and it was then fixed with 0.5 ml of fixing solution {2% (w/v) paraformaldehyde in PBS}. The fixed sample was analyzed with FACSCalibur (Beckton-Dickinson). The incorporated data was analyzed with Cell Quest (Beckton-Dickinson). […] Differing from the reaction with the gp120 monomer, in the case of a functional envelope consisting of a trimer, the binding inhibition of CD4bs antibodies by sCD4 was not observed. On the other hand, with regard to CD4i antibodies, the 4 types of antibodies all had only weak reactivity in the absence of sCD4, but in the presence of sCD4, such reactivity was increased up to the level equivalent to the reactivity of a V3 antibody.

[2] = system: strain 89.6; experiment: Single-round neutralization of pseudotyped virus, 89.6; assay type: cell-based, HIV-1; settings: 10 μg/ml and 2 μg/ml, FIG. 3
From the text: (§1) With regard to 20 types of antibodies, their binding activity to the cell surface, the amount of antibody produced, and the like were taken into consideration. As a result, regarding 15 types of antibodies, the number of cells was increased, a culture supernatant was collected and was then filtrated, and a monoclonal antibody was then purified using a protein A column or protein G column (GE Healthcare). The neutralizing activity of the thus purified monoclonal antibody on pseudotyped HIV-1 viruses was examined at an antibody concentrations of 10 μg/ml and 2 μg/ml, using the envelopes of 4 types of HIV-1 strains commonly used in laboratories (FIG. 3). In order to produce such pseudotyped virus, on the day before transfection, 293T cells were dispersed on a 100-mm collagen-coated plate (IWAKI) to a cell concentration of 4×10^6, and they were then cultured at 37° C. overnight. […] Ten seconds after the addition of the luciferase substrate, fluorescence intensity was measured with a TR477 microplate luminometer (Applied Biosystems) (in the case of GHOST-hi5). […] Thereafter, β-galactosidase activity was measured with the TR477 microplate luminometer. […]

[3] = system: strain JR-FL; experiment: Single-round neutralization of pseudotyped virus, JR-FL; assay type: cell-based, HIV-1; settings: 10 μg/ml and 2 μg/ml, FIG. 3
From the text: as §1

[4] = system: pseudotyped HIV-1 viruses (envelopes of 4 types of HIV-1 strains); experiment: Single-round neutralization of pseudotyped viruses, 4 strains overall; assay type: cell-based; settings: 4 types of envelope pseudotyped viruses overall; FIG. 3
From the text: as §1, with “overnight. Thereafter, 5 μg of pNL4-3-Luc-E^−R^− or 5 μg of pSG3ΔEnv (Li M. et. al, J. Virol. 79, pp. 10108-10125, 2005), 4.5 μg of an envelope expression vector, and 0.5 μg of a pRSV-REV vector were introduced into the culture using Effectene (QIAGEN), and the obtained mixture was then cultured at 37° C. in 5% CO2. Twenty-four hours after initiation of the culture, a supernatant was recovered and was then pass through a 0.2-μm filter. Thereafter, it was then dispensed and was then conserved at −80° C. The obtained pseudotyped virus was subjected to a p24 Antigen ELISA kit (ZeptoMetrix Co.) to measure the amount of p24 antigen. A single-round neutralization experiment using the pseudotyped virus was carried out as follows. On the day before the experiment, GHOST-hi5 cells or TZM-bl cells were dispersed on a 96-well flat bottom culture plate (Falcon) at a concentration of 2×10^4 cells/200 μl.” for “overnight.”

[5] = system: JR-FL strain; experiment: MTT assay of combined use on JR-FL strain; assay type: cell-based; settings: combined use with CCR5 inhibitor (maraviroc, MVC); HIV-1JRFL; FIG. 12
Description: By combining 0.5δ and 0.5γ in various concentrations, their neutralizing activity on a JR-FL strain was analyzed by an MTT assay. […] In order to analyze such synergistic effect, the analysis method of Chow/Talaley et al. and the 3-dimensional analysis method were applied. […]

[6] = system: HIV-1 of subtype B (Western type); experiment: MTT assay neutralization, 17 types of viral strains overall; assay type: cell-based; settings: summary of Table 2
Description: Neutralizing activity on 17 types of viral strains including clinically isolated strains was studied (Table 2). For this neutralization experiment, the following MMT assay was applied. As a method, 2×10^3 PM1/CCR5 cells were infected with 100 TCID50 virus in the presence of the antibody in each concentration on a 96-well round-bottom micro culture plate, and the cells were then cultured at 37° C. for 7 days. Thereafter, 100 μl of a culture solution was removed from each well, and 10 μl of an MTT (3-[4,5-dimethylthiazol-2-yl]-2,5-diphenyltetrazolium bromide) solution dissolved in a phosphate-buffered saline (PBS) (7.5 mg/ml) was then added thereto. The obtained mixture was incubated at 37° C. for 3 hours. Thereafter, 100 μl of acidified isopropanol containing 4% Triton X-100 (vol/vol) was added to each well, so as to release formazan crystal. The absorbance (570 nm) was measured with a microplate reader, and the cell survival rate was calculated. This experiment was repeated 2 or 3 times. The antibody concentration necessary for inhibiting 50% virus infection (IC50) was calculated, and the antibody concentration corresponding to such IC50 was indicated with color-coding.
It should be noted that strains, which were not neutralized by the anti-V3 antibody, 0.5γ(1C10), were neutralized by the CD4bs antibodies, 0.5δ(3D6) and 49G2. That is to say, a complementary neutralization was observed.

[7] = system: SVPC13; experiment: Neutralization of subtype C virus panel, SVPC13; assay type: cell-based, HIV-1; settings: compared with a control antibody, FIG. 11
From the text: (§2) As with the panels of subtype (clade) B viruses (SVPB), the panels of subtype C viruses have also been supplied. […] Thus, it is considered that they are important for the studies of cross-clade neutralization by antibodies.

[8] = system: SVPC15; experiment: Neutralization of subtype C virus panel, SVPC15; assay type: cell-based, HIV-1; settings: compared with a control antibody, FIG. 11
From the text: as §2

[9] = system: 93TH976.17; experiment: Neutralization of subtype AE virus 93TH976.17; assay type: cell-based, HIV-1; settings: 93TH976.17, subtype AE; FIG. 11
From the text: as §2

[10] = system: 93TH966.8; experiment: Neutralization of subtype AE virus 93TH966.8; assay type: cell-based, HIV-1; settings: 93TH966.8, subtype AE; FIG. 11
From the text: as §2

[11] = biological target: T1, gp120 (Human immunodeficiency virus type 1 group M subtype B, UniProt P03378); settings: epitope on gp120: V3L, CD4bs, CD4i
T1 sequence (P03378 32-509): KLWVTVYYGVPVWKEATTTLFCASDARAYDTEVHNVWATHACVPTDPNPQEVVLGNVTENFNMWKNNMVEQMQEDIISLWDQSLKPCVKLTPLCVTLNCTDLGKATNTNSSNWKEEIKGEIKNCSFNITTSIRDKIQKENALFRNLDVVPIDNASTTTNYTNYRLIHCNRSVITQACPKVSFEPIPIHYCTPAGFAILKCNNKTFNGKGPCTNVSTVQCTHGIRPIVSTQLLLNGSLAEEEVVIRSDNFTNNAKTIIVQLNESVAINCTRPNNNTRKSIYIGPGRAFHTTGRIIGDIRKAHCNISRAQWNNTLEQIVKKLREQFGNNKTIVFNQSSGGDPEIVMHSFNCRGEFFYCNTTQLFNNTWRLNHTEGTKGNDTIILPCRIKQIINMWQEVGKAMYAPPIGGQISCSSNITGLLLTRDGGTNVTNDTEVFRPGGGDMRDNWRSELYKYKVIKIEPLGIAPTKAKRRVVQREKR
Description: Antibodies reacting with gp120 are classified into the following 4 types, depending on the types of reactive epitopes. Specifically, the 4 types are a CD4-binding site (CD4bs), a CD4-induced epitope (CD4i), a third variable loop (V3loop; V3L), and those that cannot be classified into the aforementioned groups (other epitopes). Whether or not an antibody binds to V3L is determined by ELISA using a synthetic peptide having the amino acid sequence of V3L (V3-peptide ELISA). […] On the day before the experiment, 100 μl of a peptide (NNT20) diluted in PBS at a concentration of 5 μg/ml was added to each well of a 96-well polypropyren plate, and it was then left at 4° C. overnight. After washing, 175 μl of a blocking buffer was added to each well, and was incubated at room temperature for 30 minutes. The plate was washed with an ELISA wash buffer three times, and a B cell culture supernatant diluted serially was then added to the wells. The plate was reacted at room temperature for 2 hours. […] After washing the resultant, color was developed using ALP-Substrate, and the absorbance (405 nm) was then measured. […]
On the other hand, soluble CD4 (sCD4; R&D Systems, Inc. Minneapolis, Minn.) exerts completely opposite influences on a CD4bs antibody and a CD4i antibody. […] After washing them, color was developed using ALP-Substrate, and the absorbance (405 nm) was then measured.

[12] = biological target: monomeric gp120 (gp120-SF2) (Human immunodeficiency virus type 1 group M subtype B, UniProt P03378); settings: presence or absence of 0.5 μg/ml sCD4; FIG. 1
monomeric gp120 (gp120-SF2), sequence (P03378 32-509): as above
Description: The “gp120-capture ELISA” was applied to screen for the antibody-producing cells having an anti-gp120 activity (J. P. Moore et al., J. Virol. 67, pp. 6136-6151, 1993). […] Thereafter, a supernatant was removed, and 175 μl of a blocking buffer (2% bovine serum albumin; BSA, 0.1% Azide, PBS, pH 7.2) was added to the residue. The obtained mixture was left at rest at room temperature for 30 minutes. Thereafter, the well was washed with an ELISA wash buffer (0.15% Tween20, PBS, pH 7.2) three times, and 50 μl each of monomeric gp120 (gp120-SF2; Austral Biologicals, San Ramon, Calif.) was then added thereto. The obtained mixture was left at rest at room temperature for 2 hours. Thereafter, the resultant was washed with the ELISA wash buffer three times, so as to produce a “gp120-captured plate.” A culture supernatant of B cells was added to this plate, and the mixture was then reacted at room temperature for 2 hours. The resultant was washed with the ELISA wash buffer three times, and 100 μl of anti-human IgG-ALP, which had been diluted by a factor of 1000 with the ELISA buffer, was then added to the resultant. […] Thereafter, the absorbance (405 nm) was measured with a microplate reader.
Utilizing this property, monoclonal antibodies were classified. […] After washing them, color was developed using ALP-Substrate, and the absorbance (405 nm) was then measured.

[13] = system: Standard Virus Panels B; SVPB (12 types of pseudotyped viruses); experiment: Breadth of neutralization on Standard Virus Panels B; assay type: cell-based, HIV-1
Description: The neutralizing activity of the thus purified monoclonal antibody on pseudotyped HIV-1 viruses was examined at an antibody concentrations of 10 μg/ml and 2 μg/ml, using the envelopes of 4 types of HIV-1 strains commonly used in laboratories (FIG. 3). In order to produce such pseudotyped virus, on the day before transfection, 293T cells were dispersed on a 100-mm collagen-coated plate (IWAKI) to a cell concentration of 4×10^6, and they were then cultured at 37° C. overnight. Thereafter, 5 μg of pNL4-3-Luc-E^−R^− or 5 μg of pSG3ΔEnv (Li M. et. al, J. Virol. 79, pp. 10108-10125, 2005), 4.5 μg of an envelope expression vector, and 0.5 μg of a pRSV-REV vector were introduced into the culture using Effectene (QIAGEN), and the obtained mixture was then cultured at 37° C. in 5% CO2. […] Ten seconds after the addition of the luciferase substrate, fluorescence intensity was measured with a TR477 microplate luminometer (Applied Biosystems) (in the case of GHOST-hi5). […] Thereafter, β-galactosidase activity was measured with the TR477 microplate luminometer. Neutralizing activity was calculated in accordance with the expression {1−(t−c)/(n−c)}×100 (t: the fluorescence intensity of a sample; c: the background fluorescence intensity of only cells; n: the fluorescence intensity of a sample with no antibodies). […]

[14] = biological target: T1, gp120; settings: 0.5δ(3D6) 5 μg/ml for 15 minutes versus control antibody 8D11; FIG. 4
Description: Thereafter, a supernatant was removed, and 175 μl of a blocking buffer (2% bovine serum albumin; BSA, 0.1% Azide, PBS, pH 7.2) was added to the residue. The obtained mixture was left at rest at room temperature for 30 minutes. Thereafter, the well was washed with an ELISA wash buffer (0.15% Tween20, PBS, pH 7.2) three times, and 50 μl each of monomeric gp120 (gp120-SF2; Austral Biologicals, San Ramon, Calif.) was then added thereto. The obtained mixture was left at rest at room temperature for 2 hours. Thereafter, the resultant was washed with the ELISA wash buffer three times, so as to produce a “gp120-captured plate.” A culture supernatant of B cells was added to this plate, and the mixture was then reacted at room temperature for 2 hours. The resultant was washed with the ELISA wash buffer three times, and 100 μl of anti-human IgG-ALP, which had been diluted by a factor of 1000 with the ELISA buffer, was then added to the resultant. The obtained mixture was left at rest at room temperature for 1 hour. The resultant was washed with the ELISA wash buffer three times. Phosphatase substrate (SIGMA) was dissolved in a substrate buffer (Diethanol amine buffer; pH 9.85), and 100 μl of the obtained solution was then added to each well, followed by leaving the mixture at rest at room temperature for 10 to 30 minutes. Thereafter, the absorbance (405 nm) was measured with a microplate reader. […]

B1: 5G2: IgG1 κ monoclonal antibody to gp120 V3 loop; VH SEQ ID NO: 3, VL SEQ ID NO: 4; FERM BP-11021 (antibody, listed as Homo sapiens, V domains shown)
VH: EVQLVESGGGVVRPGNSLRLSCAASGIIFSTANLHWLRHVPGKGLEWVAIISYDGHRQYYADLVKGRFTISRDNSKNTLHLQMDGLTSDDTAVYYCAKDGADENNLGPAFDYWGRGTLVTVSS
VL: EIVLTQSPATLSVSPGEGATLSCRASQSISSNLAWYQQKPGQAPRLLIYGASTGATGIPARFSGSGSGTDFTLTISRLEPEDFAIYYCQQYGSLPITFGQGTRLEIKR
notes: IgG1 κ monoclonal antibody to gp120 V3 loop; FERM BP-11021
What does the source list for B1?
reactivity in the absence of sCD4 [1]: strong reactivity; neutralizing activity [2]: exhibited a neutralizing activity; neutralizing activity [3]: exhibited a neutralizing activity; neutralizing activity [4]: strong neutralizing activity; combination effect on neutralizing activity [5]: synergistic inhibitory effect; neutralizing activity on various HIV-1 strains, overall [6]: equivalent to that of a KD-247 antibody

B2: 42F9: IgG1 κ monoclonal antibody to gp120 CD4-binding site; VH SEQ ID NO: 7, VL SEQ ID NO: 8; FERM BP-11022 (antibody, listed as Homo sapiens, V domains shown)
VH: EVQLVESGGGVVRPGGSLRLSCAASGFAFGEYGMSWVRQAPGKGLEWVSGINWNGGSTGYADSVQGRFTTSRDNAKNSLYLQMNSLRAEDTALYYCARDENYDILTGNYYYGMDVWGQGTTVTVSS
VL: DIQLTQSPSSLSASVGDRVTITCRASQSISNYLNWYQQKPGKAPKLLIYAASSLQSGVPSRFSGSGSGTDFTLTISSLQPEDFATFYCQQSHSIPYTFGQGTKLEIKR
Which results are given for B2?
binding activity to the infected cell surface ([1]; FIG. 2): had a binding activity; neutralizing activity [4]: strong neutralizing activity; neutralizing activity [7]: clear neutralizing activity; neutralizing activity [8]: clear neutralizing activity; neutralizing activity [9]: exhibited a neutralizing activity; neutralizing activity [10]: exhibited a neutralizing activity; Traget [11]: CD4bs; influence of sCD4 on reactivity with gp120 [12]: suppressed in the presence of sCD4

B3: 0.5γ(1C10): human IgG1 κ monoclonal antibody to gp120 V3 loop; VH SEQ ID NO: 1, VL SEQ ID NO: 2; FERM BP-11060 (antibody, listed as Homo sapiens, V domains shown)
VH: EVQLVESGGGLIQPGGSLRLSCAASGFTVSSSSMSWVRQAPEKGLEWVSVVYSGGNTYNADSVKGRFSISRDNSKNTVYLQMNSLRADDTAVYYCARDLGGGDRSSDYWGQGTLVTVSS
VL: DIQLTQSPSSLSASVGDRVTITCRASESINTYLNWYQQRPGKAPKLLIYAASTLQTGVPSRFSGSGSGTLFTLTISSLQPEDLATYYCQQSFSTLPYTLGRGTKVEIKG
notes: human IgG1 κ monoclonal antibody to gp120 V3 loop; FERM BP-11060
For B3, which “reactivity in the absence of sCD4” value [1] is on record?
Its value is “strong reactivity”.

What about the neutralizing activity [2] of the same molecule?
The neutralizing activity was “exhibited a neutralizing activity”.

And the neutralizing activity [3]?
Its neutralizing activity is “exhibited a neutralizing activity”.

What about the neutralizing activity [4] of the same molecule?
The neutralizing activity was “strong neutralizing activity”.

And the “viruses whose growth was suppressed 50% or more” value ([13]; at a concentration of 50 μg/ml)?
The value was 7/12.

And the “viruses whose growth was suppressed 50% or more” value ([13]; at a concentration of 150 μg/ml)?
Its value is 10/12.

And the “combination effect on neutralizing activity” value [5]?
Its value is “synergistic inhibitory effect”.

What about the “neutralizing activity on various HIV-1 strains, overall” value [6] of the same molecule?
Its value is “wide range of strong neutralizing activity”.

And the “reactivity of biotinylated antibody with gp120 in the presence of 0.5δ” value [14]?
Its value is “significantly enhanced”.
